Test results: patent US20130203661A1 (AEGERION PHARMACEUTICALS, published 2013)
Substitutions are numbered along the chain they refer to.

T1: chimeric Leptin (Hu)-EPO (Mu) receptor presented by the 32D OBECA cell line (human; murine, UniProt P48357 22-839; P14753 250-507)
T1 sequence (looked up): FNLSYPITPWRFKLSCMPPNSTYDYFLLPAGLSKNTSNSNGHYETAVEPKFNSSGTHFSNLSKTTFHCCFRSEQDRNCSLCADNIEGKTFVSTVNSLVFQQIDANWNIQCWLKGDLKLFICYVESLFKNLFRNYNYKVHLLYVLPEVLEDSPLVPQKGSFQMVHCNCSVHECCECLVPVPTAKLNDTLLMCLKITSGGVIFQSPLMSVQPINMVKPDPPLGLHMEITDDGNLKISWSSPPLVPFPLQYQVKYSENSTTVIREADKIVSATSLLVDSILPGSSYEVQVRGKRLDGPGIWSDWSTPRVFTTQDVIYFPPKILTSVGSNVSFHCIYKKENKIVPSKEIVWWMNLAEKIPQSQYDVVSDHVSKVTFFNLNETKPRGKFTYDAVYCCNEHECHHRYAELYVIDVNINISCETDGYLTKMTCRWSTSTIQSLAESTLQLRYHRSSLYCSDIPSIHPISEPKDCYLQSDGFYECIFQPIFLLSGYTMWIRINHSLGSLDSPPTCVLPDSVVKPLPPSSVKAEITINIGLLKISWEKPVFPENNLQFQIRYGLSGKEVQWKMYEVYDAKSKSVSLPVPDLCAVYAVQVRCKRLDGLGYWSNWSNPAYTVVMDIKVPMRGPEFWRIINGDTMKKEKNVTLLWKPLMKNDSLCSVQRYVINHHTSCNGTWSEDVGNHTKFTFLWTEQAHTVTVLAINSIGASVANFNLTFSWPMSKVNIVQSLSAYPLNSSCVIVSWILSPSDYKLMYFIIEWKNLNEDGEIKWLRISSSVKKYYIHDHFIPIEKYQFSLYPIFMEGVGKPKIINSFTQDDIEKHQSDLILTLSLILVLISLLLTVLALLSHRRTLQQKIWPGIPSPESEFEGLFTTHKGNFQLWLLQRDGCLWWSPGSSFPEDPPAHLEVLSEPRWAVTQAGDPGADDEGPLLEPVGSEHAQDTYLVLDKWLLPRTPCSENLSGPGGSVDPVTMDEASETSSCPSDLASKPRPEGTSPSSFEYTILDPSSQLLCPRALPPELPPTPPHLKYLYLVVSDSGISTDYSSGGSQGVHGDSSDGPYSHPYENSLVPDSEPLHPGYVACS

B1: Seal leptin with N-terminal methionine, and with amino acids 23-49 replaced with amino acids 25-51 (AB loop) of metreleptin (ligand)
chain: MPIQRVQDDTKTLIKTIITRINDISHTQSVSSKQKVTGLDFIPGLHPILTLSGMDQILATYQQILTSLQSRSVVQIANDLANLRALLRLLASAKSCPVPRARGSDTIKGLGNVLRASVHSTEVVALSRLKAALQDMLRQLDRNPGC
notes: Seal-human chimeric leptin; also called Compound 46
B2: Seal leptin with N-terminal methionine, and with amino acids 71-92 replaced with amino acids 73-94 (helix 3) of metreleptin, and with amino acids 23-49 … (ligand)
chain: B1 chain with S72N, V74I, A77S, A81E, A85D, R88H, L89V, S92F, A93S
notes: Seal-human chimeric leptin; also called Compound 51
B3: Seal leptin with N-terminal methionine, with amino acids 23-49 replaced with amino acids 25-51 (AB loop) of metreleptin, and with amino acids 120-141 replaced … (ligand)
chain: B1 chain with K130Q, A131G, A132S, R138W, R142L
notes: Seal-human chimeric leptin; also called Compound 40
B4: Seal leptin with N-terminal methionine, with amino acids 23-49 replaced with amino acids 25-51 (AB loop) of metreleptin, and with amino acids 93-119 replaced … (ligand)
chain: MPIQRVQDDTKTLIKTIITRINDISHTQSVSSKQKVTGLDFIPGLHPILTLSGMDQILATYQQILTSLQSRSVVQIANDLANLRALLRLLASAKSCHLPWASGLETLDSLGGVLEASGYSTEVVALSRLKAALQDMLRQLDRNPGC
notes: Seal-human chimeric leptin; also called Compound 47
B5: Seal leptin with N-terminal methionine, and with amino acids 71-92 replaced with amino acids 73-94 (helix 3) of metreleptin (ligand)
chain: MPIQRVQDDTKTLIKTIITRINDISPPQGVCSRPRVAGLDFIPRVQSVRTLSGMDQILATYQQILTSLQSRNVIQISNDLENLRDLLHVLAFSKSCPVPRARGSDTIKGLGNVLRASVHSTEVVALSRLKAALQDMLRQLDRNPGC
notes: Seal-human chimeric leptin; also called Compound 41; Cmpd 41
B6: Seal leptin with N-terminal methionine, and with amino acids 3-22 replaced with amino acids 5-24 (helix 1) of metreleptin, and amino acids 72-93 replaced with … (ligand)
chain: B5 chain with R5K, I18V
notes: Seal-human chimeric leptin; also called Compound 45
B7: Seal leptin with N-terminal methionine, and with amino acids 30 and 71-92 replaced with amino acids 32 and 73-94 (helix 3) of metreleptin (ligand)
chain: B5 chain with C31S
notes: Seal-human chimeric leptin; also called Compound 48; Cmpd 48
B8: Seal leptin with N-terminal methionine, and with amino acids 50-65 replaced with amino acids 52-67 (helix 2) of metreleptin (ligand)
chain: MPIQRVQDDTKTLIKTIITRINDISPPQGVCSRPRVAGLDFIPRVQSVRTLSKMDQTLAVYQQILTSLQSRSVVQIANDLANLRALLRLLASAKSCPVPRARGSDTIKGLGNVLRASVHSTEVVALSRLKAALQDMLRQLDRNPGC
notes: Seal-human chimeric leptin; also called Compound 43
B9: Seal leptin with N-terminal methionine, and with amino acids 93-119 replaced with amino acids 95-121 (loop 3-4) of metreleptin (ligand)
chain: MPIQRVQDDTKTLIKTIITRINDISPPQGVCSRPRVAGLDFIPRVQSVRTLSGMDQILATYQQILTSLQSRSVVQIANDLANLRALLRLLASAKSCHLPWASGLETLDSLGGVLEASGYSTEVVALSRLKAALQDMLRQLDRNPGC
notes: Seal-human chimeric leptin; also called Compound 42; Cmpd 42
B10: Seal leptin with N-terminal methionine, and with amino acids 30 and 93-119 replaced with amino acids 32 and 95-121 (loop 3-4) of metreleptin (ligand)
chain: B9 chain with C31S
notes: Seal-human chimeric leptin; also called Compound 49; Cmpd 49
B11: Seal leptin with N-terminal methionine, with amino acids 71-92 replaced with amino acids 73-94 (helix 3) of metreleptin, and with amino acids 93-119 replaced … (ligand)
chain: B9 chain with S72N, V74I, A77S, A81E, A85D, R88H, L89V, S92F, A93S
notes: Seal-human chimeric leptin; also called Compound 50
B12: Seal leptin with N-terminal methionine, with amino acids 23-49 replaced with amino acids 25-51 (AB loop) of metreleptin, with amino acids 93-119 replaced with … (ligand)
chain: B4 chain with S72N, V74I, A77S, A81E, A85D, R88H, L89V, S92F, A93S
B13: Seal leptin (ligand)
chain: PIQRVQDDTKTLIKTIITRINDISPPQGVCSRPRVAGLDFIPRVQSVRTLSGMDQILATYQQILTSLQSRSVVQIANDLANLRALLRLLASAKSCPVPRARGSDTIKGLGNVLRASVHSTEVVALSRLKAALQDMLRQLDRNPGC
notes: also called Compound 38; Cmpd 38
B14: Seal leptin with N-terminal methionine, and with amino acids 3-22 replaced with amino acids 5-24 (helix 1) of metreleptin (ligand)
chain: B8 chain with R5K, I18V, K53G, T57I, V60T
B15: Seal leptin with N-terminal methionine, and with amino acids 120-141 replaced with amino acids 122-143 (helix 4) of metreleptin (ligand)
chain: B8 chain with K53G, T57I, V60T, K130Q, A131G, A132S, R138W, R142L
notes: Seal-human chimeric leptin; also called Compound 44

What follows are binders tested against T1, chimeric Leptin (Hu)-EPO (Mu) receptor … (assay: cell-based or functional assay).

Row | Binder | EC50 (Obeca Stat 5 functional assay)
1 | B1 | 0.042 nM
2 | B2 | 0.038 nM
3 | B3 | 0.588 nM
4 | B4 | 0.0625 nM
5 | B5 | 0.028 nM
6 | B6 | 0.029 nM
7 | B7 | 0.039 nM
8 | B8 | 0.054 nM
9 | B9 | 0.043 nM
10 | B10 | 0.034 nM
11 | B11 | 0.022 nM
12 | B12 | 0.044 nM
13 | B13 | 0.019 nM
14 | B14 | 0.095 nM
15 | B15 | 0.032 nM

What follows are binders tested against T1, chimeric Leptin (Hu)-EPO (Mu) receptor … (assay: Obeca cell binding: displacement of 125I-murine leptin from 32D OBECA cell membranes).

Row | Binder | IC50
16 | B1 | 0.479 nM
17 | B2 | 0.119 nM
18 | B3 | 2.41 nM
19 | B4 | 0.788 nM
20 | B5 | 0.555 nM
21 | B6 | 0.527 nM
22 | B7 | 0.036 nM
23 | B8 | 3.08 nM
24 | B9 | 2.02 nM
25 | B10 | 0.105 nM
26 | B11 | 0.214 nM
27 | B13 | 2 nM
28 | B15 | 3.54 nM
